Source: the supplement of paper PMC10598134
± gives the standard deviation.

Test: collision cross section of modified peptide (TIMS, N2, iRT-aligned); higher = larger / more extended gas-phase ion
Description: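 1/K0 was aligned run-wise to spiked iRT peptides and converted to CCS in N2 (Mason-Schamp). Values are the mean of 1-3 technical replicates for the most abundant feature at each charge state.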

[1] = charge state: 2, modification: Succinyl
[2] = charge state: 3, modification: Succinyl
[3] = charge state: 3, modification: Citrullination (R)
[4] = charge state: 2, modification: Methyl (K)
[5] = charge state: 3, modification: Methyl (K)
[6] = charge state: 2, modification: Formyl
[7] = charge state: 2, modification: Crotonyl
[8] = charge state: 3, modification: Crotonyl
[9] = charge state: 2, modification: hydroxyisobutyryl
[10] = charge state: 2, modification: Propionyl
[11] = charge state: 3, modification: Formyl
[12] = charge state: 2, modification: Butyryl
[13] = charge state: 3, modification: Butyryl

VETTVTSLKTK [_VETTVTSLK(Succinyl)TK_] showed a collision cross section [1] of 381.14 ± 3.4 Å² and a collision cross section [2] of 451.06 Å².
For SEASSEFAKK [_SEASSEFAK(Biotin)K_], the collision cross section (charge state: 2, modification: Biotin) was 374.33 Å².
“LGTTPSVYGGAGGRGIR [_LGTTPSVYGGAGGR(Citrullination (R))GIR_]” gave a collision cross section (charge state: 2, modification: Citrullination (R)) of 423 ± 0.56 Å² and a collision cross section [3] of 500.66 ± 24 Å².
Sequence DLYEPSHGAK [_DLY(Phospho (Y))EPSHGAK_] has a collision cross section (charge state: 2, modification: Phospho (Y)) of 375.68 ± 0.063 Å².
In the case of “FDDTNPEKEEAK [_FDDTNPEK(Methyl (K))EEAK_]”, the collision cross section [4] is reported as 400.43 ± 1.8 Å² and the collision cross section [5] is reported as 498.56 ± 1.5 Å².
For SGFGKFER [_SGFGK(Formyl)FER_], the collision cross section [6] was 326.95 ± 0.99 Å².
With “IHVQSSSDSSDEPAEKR [_IHVQSSSDSSDEPAEK(Crotonyl)R_]” the collision cross section [7] was 451.2 Å² and the collision cross section [8] was 506.27 ± 1.7 Å².
Sequence “SLGEPAAGEGSAKR [_SLGEPAAGEGSAK(GlyGly (K))R_]” has a collision cross section (charge state: 2, modification: GlyGly (K)) of 411.44 ± 1.9 Å² and a collision cross section (charge state: 3, modification: GlyGly (K)) of 486.35 ± 2.8 Å².
“LGVATVAKGVCGACK [_LGVATVAK(hydroxyisobutyryl)GVCGACK_]” gave a collision cross section [9] of 419.46 ± 1.2 Å².
Work on “GEVQVSDKER [_GEVQVSDK(Trimethyl (K))ER_]” yielded a collision cross section (charge state: 2, modification: Trimethyl (K)) of 366.73 ± 1.1 Å².
In the case of LLEQKTQESQK [_LLEQK(Succinyl)TQESQK_], the collision cross section [1] is reported as 400.32 ± 0.77 Å².
With “LQDVSGQLSSSKK [_LQDVSGQLSSSK(Succinyl)K_]” the collision cross section [1] was 402.37 ± 0.79 Å² and the collision cross section [2] was 468.7 ± 14 Å².
“DSSPTTNSKLSALQR [_DSSPTTNSK(Methyl (K))LSALQR_]” showed a collision cross section [4] of 419.3 Å² and a collision cross section [5] of 475.79 ± 3.5 Å².
“HGGSGGRGVSVSSAR [_HGGSGGR(Citrullination (R))GVSVSSAR_]” gave a collision cross section [3] of 485.51 ± 3.7 Å².
For VNALKNLQVK [_VNALK(Formyl)NLQVK_], the collision cross section [6] was 363.1 ± 0.39 Å².
“TEVLSPNSKVESK [_TEVLSPNSK(Propionyl)VESK_]” gave a collision cross section [10] of 413.62 ± 0.97 Å² and a collision cross section (charge state: 3, modification: Propionyl) of 453.73 Å².
“IVFSGNLFQHQEDSKK [_IVFSGNLFQHQEDSK(Formyl)K_]” showed a collision cross section [6] of 496.72 ± 1.3 Å² and a collision cross section [11] of 530.13 ± 1.3 Å².
“SLGEPAAGEGSAKR [_SLGEPAAGEGSAK(Butyryl)R_]” showed a collision cross section [12] of 388.15 ± 2 Å² and a collision cross section [13] of 487.74 ± 4.3 Å².
For ILDLKTGTVK [_ILDLK(Butyryl)TGTVK_], the collision cross section [12] was 361.67 ± 1.2 Å².
“DAEAAEATAEGALKAEK [_DAEAAEATAEGALK(Crotonyl)AEK_]” gave a collision cross section [7] of 474.87 ± 0.81 Å² and a collision cross section [8] of 545.42 ± 1.3 Å².
“ITGKNQVTATK [_ITGK(hydroxyisobutyryl)NQVTATK_]” showed a collision cross section [9] of 372.92 ± 1.4 Å².
“LLIVSTTPYSEKDTK [_LLIVSTTPYSEK(Butyryl)DTK_]” gave a collision cross section [12] of 459.06 ± 0.51 Å² and a collision cross section [13] of 488.4 ± 2.4 Å².
“PLPVALQTRLAK [_PLPVALQTR(Methyl (R))LAK_]” showed a collision cross section (charge state: 2, modification: Methyl (R)) of 400.79 ± 0.32 Å² and a collision cross section (charge state: 3, modification: Methyl (R)) of 474 ± 2.6 Å².
For “TTLTSDESVKDHTTAGR [_TTLTS(HexNAc (ST))DESVKDHTTAGR_]”, the collision cross section (charge state: 3, modification: HexNAc (ST)) was 545.39 ± 0.18 Å².
Sequence “GEVGAGAGPGAQAGPSAKR [_GEVGAGAGPGAQAGPSAK(Gluratylation)R_]” has a collision cross section (charge state: 2, modification: Glutarylation) of 425.64 ± 1.1 Å² and a collision cross section (charge state: 3, modification: Glutarylation) of 490.81 ± 0.95 Å².
SPDEAYAIAKK [_SPDEAYAIAK(Formyl)K_] showed a collision cross section [6] of 364.33 ± 1 Å².
For LDEKENLSAK [_LDEK(Propionyl)ENLSAK_], the collision cross section [10] was 369.99 ± 0.94 Å².
For “ASDTSSETVFGKR [_ASDTSSETVFGK(hydroxyisobutyryl)R_]”, the collision cross section [9] was 403.06 ± 1.1 Å² and the collision cross section (charge state: 3, modification: hydroxyisobutyryl) was 485.06 ± 0.47 Å².
“IHVQSSSDSSDEPAEKR [_IHVQSSSDSSDEPAEK(Formyl)R_]” showed a collision cross section [6] of 447.23 Å² and a collision cross section [11] of 491.34 ± 2.1 Å².
Sequence “GAEKTEVAEPR [_GAEK(Trimethyl (K))TEVAEPR_]” has a collision cross section (charge state: 3, modification: Trimethyl (K)) of 447.07 ± 3.3 Å².
Work on “DTPTSAGPNSFNKGK [_DTPTSAGPNSFNK(Succinyl)GK_]” yielded a collision cross section [1] of 411.39 ± 1.1 Å².
